Measurements as given in US20150148520A1.
Several values for one entry are separate records, joined by “and”; a condition that tells them apart may be missing. Equal values may be shown once.

Key:
[1] = target: insulin receptor, B subtype (UniProt P06213); assay: cell-based or functional assay
[2] = target: human IGF-1 receptor (human) (UniProt P08069); assay: cell-based or functional assay
[3] = target: insulin receptor, A subtype (UniProt P06213); assay: cell-based or functional assay
[4] = target: human insulin receptor (human) (UniProt P06213); assay: cell-based or functional assay
[5] = target: human insulin receptor (human) (UniProt P06213); assay: SPA competition, [125I]-insulin, IR membranes

Row | % (in vitro activity, IR-B) [1] | % (in vitro activity, IR-A) [3] | % Insulin Activity [3] | % Insulin Activity [1] | % Insulin Activity [2] | Substance | further results
1 | 5.7% |  |  |  |  | Ala,B5: B^1(A5H10Y16L17)25-C^1-A^1(H8N18N21) (from UniProt P05019 49-110) (ligand) | % (in vitro activity, IGF-1 R) [2]: 2.5%
2 |  | 0.03% |  |  |  | DP3(SC): B^1(H5,10Y16L17K29)29-A^1(H8,N18,21) (from UniProt P05019 49-110) (ligand) | 
3 | 33.1% | 160% |  |  |  | DP3(TC): B^1(H5,10Y16L17K29)29: A^1(H8,N18,21) (ligand) | 
4 | 12.6% | 132% |  |  |  | DP8Mut3KA14: B^1(H5,10Y16L17R29)30-C^1des9-12-A^1(H8,K14,N18,21) (from UniProt P05019 49-110) (ligand) | 
5 |  |  |  |  |  | IGF-1 A (H8 A9 N21): B (H5D10Y16L17 A22) DPI A-COOH (ligand) | % Insulin [4]: 360% and 614%
6 |  |  |  |  |  | IGF-1 A: B (H5D10Y16L17) (S═O) DPI (ligand) | % insulin (in test) [5]: 316%; IC50 [5]: 0.25 nM
7 |  |  |  |  |  | IGF-1 A: B (H5D10Y16L17) DPI (ligand) | % insulin (in test) [5]: 479%; IC50 [5]: 0.16 nM
8 | 17.4% | 61.4% | 61.4% | 17.4% | 3.2% | MIU-35: B^1(H5,H10,Y16,L17)25-C^1-A^1(H8,N18,N21) (from UniProt P05019 49-110) (ligand) | % (in vitro activity, IGF-1 R) [2]: 3.2%
9 | 16.7% | 97.5% |  |  |  | MIU-43 DP8Mut3: B^1(H5,10Y16L17R29)30-C^1des9-12-A^1(H8,N18,21) (from UniProt P05019 49-110) (ligand) | % (in vitro activity, column IGF-1R) [2]: 14.2%
10 |  |  | 14.8% |  |  | MIU-56: C8-PEG20K B^1(H5,Y16,L17)25-PEG8-K-PEG4-A^1(N18,N21) (from UniProt P05019 49-110) (ligand) | 
11 | 1.1% | 4.5% | 3.1% | 1.1% | 1.2% | MIU-57: B^1(H5,Y16,L17)25-C^1-A^1(N18,21) with a 20 kDa PEG on the N-terminus of the B chain (from UniProt P05019 49-110) (ligand) | % (in vitro activity, IGF-1 R) [2]: 1.2%
12 |  |  | 19.7% | 5.8% | 2.6% | MIU-58: dimer of two B^1(H5,Y16,L17)25-C^1-A^1(N18,21) linked head to head via a 20 kDa PEG chain (from UniProt P05019 49-110) (ligand) | 
13 |  |  | 0.2% | 0.1% | < 0.1% | MIU-67: B^1(H5,Y16,L17)25-C^1(K8)-A^1(N18,21), two 10K PEG chains at the N-terminus and C8 (from UniProt P05019 49-110) (ligand) | 
14 |  |  | 0.4% | 0.1% | < 0.1% | MIU-68: B^1(H5,Y16,L17,K22)25-C^1(K8)-A^1(N18,21), two 10K PEG chains at the N-terminus and B22 (from UniProt P05019 49-110) (ligand) | 
15 |  |  | 1% | 0.5% | < 0.1% | MIU-69: B^1(H5,Y16,L17)25-C^1(K8)-A^1(K14,N18,21), two 10K PEG chains at the N-terminus and A14 (from UniProt P05019 49-110) (ligand) | 
16 | 3.2% | 8.2% |  |  |  | MIU-78 mono-20K-TC: B1-20K B^1(H5,10Y16L17K29)29: A^1(H8N18,21) (ligand) | 
17 | 0.2% | 1.7% |  |  |  | MIU-79 di-10K-SC: B1, A14-10K B^1(H5,10Y16L17R29)30-C^1des9-12-A^1(H8,K14,N18,21) (from UniProt P05019 49-110) (ligand) | 
18 | 8.4% | 20.4% |  |  |  | Thr,A8: B^1(H5,10Y16L17)25-C^1-A^1(T8N18,21) (from UniProt P05019 49-110) (ligand) | % (in vitro activity, IGF-1 R) [2]: 3.7%
19 | 2.1% | 6.4% |  |  |  | di-10K-TC: B1, A14-10K B^1(H5,10Y16L17R29)29: A^1(H8K14N18,21) (ligand) | 
